Data: PMC6584647, “Integrated NMR and cryo-EM atomic-resolution structure determination of a half-megadalton enzyme complex” (Nature Communications, 2019)

Molecular target: the molecule itself
Test: cryo-EM structure; single-particle cryo-EM map at 4.1 Å with tetrahedral symmetry imposed, refined jointly with MAS NMR and solution-NMR restraints (XPLOR-NIH, full dodecamer)

B1: aminopeptidase TET2 from Pyrococcus horikoshii (enzyme)
chain: MEVRNMVDYELLKKVVEAPGVSGYEFLGIRDVVIEEIKDYVDEVKVDKLGNVIAHKKGEGPKVMIAAHMDQIGLMVTHIEKNGFLRVAPIGGVDPKTLIAQRFKVWIDKGKFIYGVGASVPPHIQKPEDRKKAPDWDQIFIDIGAESKEEAEDMGVKIGTVITWDGRLERLGKHRFVSIAFDDRIAVYTILEVAKQLKDAKADVYFVATVQEEVGLRGARTSAFGIEPDYGFAIDVTIAADIPGTPEHKQVTHLGKGTAIKIMDRSVICHPTIVRWLEELAKKHEIPYQLEILLGGGTDAGAIHLTKAGVPTGALSVPARYIHSNTEVVDERDVDATVELMTKALENIHELKI
notes: TET2 aminopeptidase, Pyrococcus horikoshii, UniProt O59196; 353 residues (39 kDa) per subunit as printed; Dodecamer of 12 x 39 kDa (468 kDa), with two zinc ions in each active site; Samples carried various isotope labels (2H, 13C, 15N, methyl labelling); the cryo-EM sample was u-[2H,13C,15N]-labelled; No tag is mentioned; source: E. coli BL21(DE3), purified (heating to 85 °C, Resource Q, size …)
stoichiometry N: 12
